Consider 2 substances from PMC12540671.

The target in experiment [1] is ATM (ataxia-telangiectasia mutated) kinase (mouse (endogenous in cerebellar tissue)) (UniProt Q62388). Put plainly: non-reducing SDS-PAGE and immunoblot; ex vivo mouse cerebellar tissue culture exposed to glargine (100 nM, 2 h); proteins denatured in 2% SDS without boiling, separated under nonreducing conditions at 4 °C; the NOX4 antagonist GLX7013114 or shRNA impeded the insulin-induced dimerization.

Experiment [2] addresses PKM2 (pyruvate kinase M2) (mouse (endogenous in cerebellar tissue)) (UniProt P52480). Put plainly: cross-linking; 5 mM disuccinimidyl suberate (DSS), 30 min, room temperature, quenched with Tris, then immunoblot for PKM2; mouse cerebellar tissue of Atm-WT and Atm-KO, also with TEPP-46.
Experiment [3] shares this target. Described as above. The source holds these as a separate data set.

Read-outs that look alike come from different tables or passages of the source.

Chain of PKM2 (pyruvate kinase M2), P52480 1-531 (enzyme; other documents disagree on this pair) (P52480 whole entry): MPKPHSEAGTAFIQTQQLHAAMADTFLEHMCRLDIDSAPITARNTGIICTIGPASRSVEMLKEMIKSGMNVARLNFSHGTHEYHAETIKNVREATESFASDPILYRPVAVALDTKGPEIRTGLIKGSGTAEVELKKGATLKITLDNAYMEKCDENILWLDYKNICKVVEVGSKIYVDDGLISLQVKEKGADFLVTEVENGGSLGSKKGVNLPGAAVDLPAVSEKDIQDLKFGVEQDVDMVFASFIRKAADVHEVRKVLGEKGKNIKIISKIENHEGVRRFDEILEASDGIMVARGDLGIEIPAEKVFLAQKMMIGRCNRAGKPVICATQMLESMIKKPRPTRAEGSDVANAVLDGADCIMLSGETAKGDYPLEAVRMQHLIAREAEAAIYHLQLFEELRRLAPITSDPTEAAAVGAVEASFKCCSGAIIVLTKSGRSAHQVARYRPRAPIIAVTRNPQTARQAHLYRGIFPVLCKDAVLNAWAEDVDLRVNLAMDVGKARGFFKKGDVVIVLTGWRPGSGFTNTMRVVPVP

On to “ATM (ataxia-telangiectasia mutated) kinase, Q62388 1-3066”, for which the stoichiometry N in experiment [1] worked out at 2.
As to “PKM2 (pyruvate kinase M2), P52480 1-531 (enzyme; other documents disagree on this pair)”, the stoichiometry N in experiment [2] is 2; in experiment [3] it was 4.
